Columns and labels:
[1] = biological target: the molecule itself; test: self-association; nonreducing SDS gels
[2] = biological target: the molecule itself; test: homodimerization; non-reducing SDS-PAGE and western blot with anti-OPG antibodies
Method: Each resulting muOPG-CT plasmid containing the appropriate truncation was then transfected into human 293 cells, the mutant OPG-Fc fusion protein purified from conditioned media as described above. The biological activity of each protein was assessed the in vitro osteoclast forming assay described in example 11. The conditioned medias were also analysed by non-reducing SDS-PAGE and western blotting using anti-OPG antibodies.

[3] = biological target: the molecule itself; test: homodimerization; non-reducing SDS-PAGE and western blot; the number is the monomer share
Method: The biological activity of each protein was assessed the in vitro osteoclast forming assay described in example 11. Conditioned media from each transfectant was analysed by non-reducing SDS-PAGE and western blotting with anti-OPG antibodies.

| Protein | percent monomeric [3] [%] | other results |
| --- | --- | --- |
| huOPG [22-401] (receptor, Recombinant polypeptide from CHO cells) ETFPPKYLHYDEETSHQLLCDKCPPGTYLKQHCTAKWKSVCAPCPDHYYTDSWHTSDECLYCSPVCKELQYVKQECNRTHNRVCECKEGRYLEIEFCLKHRSCPPGFGVVQAGTPERNTVCKRCPDGFFSNETSSKAPCRKHTNCSVFGLLLTQKGNATHDNICSGNSESTQKCGIDVTLCEEAFFRFAVPTKFTPNWLSVLVDNLPGTKVNAESVERIKRQHSSQEQTFQLLKLWKHQNKAQDIVKKIIQDIDLCENSVQRHIGHANLTFEQLRSLMESLPGKKVGAEDIEKTIKACKPSDQILKLLSLWRIKNGDQDTLKGLMHALKHSKTYHFPKTVTQSLKKTIRFLHSFTMYKLYQKLFLEMIGNQVQSVKISCL |  | binding result [1]: binds |
| muOPG [22-200] (receptor, C-terminal truncation ending at threonine 200, expressed in 293 cells; also called CT 200) ETLLPKYLHYDPETGHQLLCDKCAPGTYLKQHCTVRRKTLCVPCPDHSYTDSWHTSDECVYCSPVCKELQSVKQECNRTHNRVCECEEGRYLEIEFCLKHRSCPPGSGVVQAGTPERNTVCKKCPDGFFSGETSSKAPCIKHTNCSTFGLLLIQKGNATHDNCCSGNREATQKCGIDVT |  | binding result [2]: no binding |
| Rat OPG [22-401] produced in transgenic mice (receptor, Expressed from the rat cDNA under a hepatocyte control element in transgenic mice; Analysed in liver extracts and serum; also called HE-OPG transgene product) ETFPPKYLHYDPETGRQLLCDKCAPGTYLKQHCTVRRKTLCVPCPDYSYTDSWHTSDECVYCSPVCKELQTVKQECNRTHNRVCECEEGRYLELEFCLKHRSCPPGLGVLQAGTPERNTVCKRCPDGFFSGETSSKAPCRKHTNCSSLGLLLIQKGNATHDNVCSGNREATQNCEIDVTLCEEAFFRFAVPTKIIPNWLSVLVDSLPGTKVNAESVERIKRRHSSQEQTFQLLKLWKHQNRDQEMVKKIIQDIDLCESSVQRHIGHANLTTEQLRILMESLPGKKISPDEIERTRKTCKPSEQLLKLLSLWRIKNGDQDTLKGLMYALKHLKAYHFPKTVTHSLRKTIRFLHSFTMYRLYQKLFLEMIGNQVQSVKISCL |  | binding result [1]: binds |
| muOPG [22-401] C195S (receptor) ETLLPKYLHYDPETGHQLLCDKCAPGTYLKQHCTVRRKTLCVPCPDHSYTDSWHTSDECVYCSPVCKELQSVKQECNRTHNRVCECEEGRYLEIEFCLKHRSCPPGSGVVQAGTPERNTVCKKCPDGFFSGETSSKAPCIKHTNCSTFGLLLIQKGNATHDNCCSGNREATQKSGIDVTLCEEAFFRFAVPTKIIPNWLSVLVDSLPGTKVNAESVERIKRRHSSQEQTFQLLKLWKHQNRDQEMVKKIIQDIDLCESSVQRHLGHSNLTTEQLLALMESLPGKKISPEEIERTRKTCKSSEQLLKLLSLWRIKNGDQDTLKGLMYALKHLKTSHFPKTVTHSLRKTMRFLHSFTMYRLYQKLFLEMIGNQVQSVKISCL | > 90 |  |
| muOPG [22-401] C319S (receptor, Expressed in 293 cells from pcDNA3.1-muOPG) ETLLPKYLHYDPETGHQLLCDKCAPGTYLKQHCTVRRKTLCVPCPDHSYTDSWHTSDECVYCSPVCKELQSVKQECNRTHNRVCECEEGRYLEIEFCLKHRSCPPGSGVVQAGTPERNTVCKKCPDGFFSGETSSKAPCIKHTNCSTFGLLLIQKGNATHDNCCSGNREATQKCGIDVTLCEEAFFRFAVPTKIIPNWLSVLVDSLPGTKVNAESVERIKRRHSSQEQTFQLLKLWKHQNRDQEMVKKIIQDIDLCESSVQRHLGHSNLTTEQLLALMESLPGKKISPEEIERTRKTSKSSEQLLKLLSLWRIKNGDQDTLKGLMYALKHLKTSHFPKTVTHSLRKTMRFLHSFTMYRLYQKLFLEMIGNQVQSVKISCL | > 90 |  |
| muOPG [22-401] C202S (receptor, Expressed in 293 cells from pcDNA3.1-muOPG) ETLLPKYLHYDPETGHQLLCDKCAPGTYLKQHCTVRRKTLCVPCPDHSYTDSWHTSDECVYCSPVCKELQSVKQECNRTHNRVCECEEGRYLEIEFCLKHRSCPPGSGVVQAGTPERNTVCKKCPDGFFSGETSSKAPCIKHTNCSTFGLLLIQKGNATHDNCCSGNREATQKCGIDVTLSEEAFFRFAVPTKIIPNWLSVLVDSLPGTKVNAESVERIKRRHSSQEQTFQLLKLWKHQNRDQEMVKKIIQDIDLCESSVQRHLGHSNLTTEQLLALMESLPGKKISPEEIERTRKTCKSSEQLLKLLSLWRIKNGDQDTLKGLMYALKHLKTSHFPKTVTHSLRKTMRFLHSFTMYRLYQKLFLEMIGNQVQSVKISCL | > 90 |  |
| muOPG [22-401] C277S (receptor, Expressed in 293 cells from pcDNA3.1-muOPG) ETLLPKYLHYDPETGHQLLCDKCAPGTYLKQHCTVRRKTLCVPCPDHSYTDSWHTSDECVYCSPVCKELQSVKQECNRTHNRVCECEEGRYLEIEFCLKHRSCPPGSGVVQAGTPERNTVCKKCPDGFFSGETSSKAPCIKHTNCSTFGLLLIQKGNATHDNCCSGNREATQKCGIDVTLCEEAFFRFAVPTKIIPNWLSVLVDSLPGTKVNAESVERIKRRHSSQEQTFQLLKLWKHQNRDQEMVKKIIQDIDLSESSVQRHLGHSNLTTEQLLALMESLPGKKISPEEIERTRKTCKSSEQLLKLLSLWRIKNGDQDTLKGLMYALKHLKTSHFPKTVTHSLRKTMRFLHSFTMYRLYQKLFLEMIGNQVQSVKISCL | > 90 |  |
| muOPG [22-401] C400S (receptor, Expressed in 293 cells from pcDNA3.1-muOPG) ETLLPKYLHYDPETGHQLLCDKCAPGTYLKQHCTVRRKTLCVPCPDHSYTDSWHTSDECVYCSPVCKELQSVKQECNRTHNRVCECEEGRYLEIEFCLKHRSCPPGSGVVQAGTPERNTVCKKCPDGFFSGETSSKAPCIKHTNCSTFGLLLIQKGNATHDNCCSGNREATQKCGIDVTLCEEAFFRFAVPTKIIPNWLSVLVDSLPGTKVNAESVERIKRRHSSQEQTFQLLKLWKHQNRDQEMVKKIIQDIDLCESSVQRHLGHSNLTTEQLLALMESLPGKKISPEEIERTRKTCKSSEQLLKLLSLWRIKNGDQDTLKGLMYALKHLKTSHFPKTVTHSLRKTMRFLHSFTMYRLYQKLFLEMIGNQVQSVKISSL | > 90 |  |
| muOPG [22-212] (receptor, also called CT212) ETLLPKYLHYDPETGHQLLCDKCAPGTYLKQHCTVRRKTLCVPCPDHSYTDSWHTSDECVYCSPVCKELQSVKQECNRTHNRVCECEEGRYLEIEFCLKHRSCPPGSGVVQAGTPERNTVCKKCPDGFFSGETSSKAPCIKHTNCSTFGLLLIQKGNATHDNCCSGNREATQKCGIDVTLCEEAFFRFAVP |  | binding result [2]: no binding |
